Holding throughout (test): cell-based or functional assay
The target in one experiment is human GLP-1 receptor (human, UniProt P43220 24-463).
Experiment [1] concerns the target T1, human glucagon receptor (human, UniProt P47871 26-477).
The target in experiment [2] is T1, human glucagon receptor. This is another data set of the same source.

Several values for one entry are separate records, joined by “and”; a condition that tells them apart may be missing. Identical values can stand only once. *1 amine or outer side, *2 acyl side, *3 side chain or, on linkers, in order; H or OH if unused. Bridges are numbered along the chain shown (N, C = ends). Where no end group is shown, it is not given here. Side-chain parts run from the residue outwards. [ ]: non-standard residue; d: D form. The star is where a group is joined. Oxa12‑cholesterol = C10 = Cys(oxa12-cholesterol); γGlu = O=C(O)[C@H](CCC(=O)[*:2])N[*:1]; oxa12‑cholesterol = not defined here; Palmitoyl = CCCCCCCCCCCCCCCC(=O)*; Ac4c = NC1(C(=O)O)CCC1; Aib = CC(C)(N)C(=O)O

T1 sequence (P47871 26-477): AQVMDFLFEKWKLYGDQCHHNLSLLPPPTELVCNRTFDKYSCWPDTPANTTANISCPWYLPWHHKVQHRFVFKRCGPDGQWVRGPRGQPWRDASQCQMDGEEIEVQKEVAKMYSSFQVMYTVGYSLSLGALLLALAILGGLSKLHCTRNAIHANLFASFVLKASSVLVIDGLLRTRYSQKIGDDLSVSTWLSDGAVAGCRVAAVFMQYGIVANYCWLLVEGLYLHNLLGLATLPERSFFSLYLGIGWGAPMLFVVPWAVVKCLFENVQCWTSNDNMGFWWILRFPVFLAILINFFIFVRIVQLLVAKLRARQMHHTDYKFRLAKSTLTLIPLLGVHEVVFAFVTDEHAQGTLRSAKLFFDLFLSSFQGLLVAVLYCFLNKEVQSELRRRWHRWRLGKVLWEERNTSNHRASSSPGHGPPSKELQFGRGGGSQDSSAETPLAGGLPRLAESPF

B1: OXM409 (peptide)
peptide: HSQGTFTSDKSKYLDSRRAQDFVQWLMNTK
modifications: D-Ser at position 2; Lys(γE-γE-palmitoyl) at position 10; C-terminal amide
In the case of B1, in the experiment with human GLP-1 receptor, the “hGLP-1R + 20% Plasma EC50” value worked out at 0.7 nM. In addition, the “hGCGR + 20% plasma EC50” value with human glucagon receptor [1] was found to be 0.1 nM.

B2: OXM392 (peptide)
peptide: H[dS]QGTFTSDYSKYLDERRAKDFVQWLMNTK[γGlu][γGlu]C(oxa12‑cholesterol)-OH
modifications: lactam 16-20; reading uncertain
Regarding B2, in the experiment with human GLP-1 receptor, the “hGLP-1R + 20% Plasma EC50” value worked out at 3 nM and the “hGLP-1R EC50” value stood at 0.03 nM. Further, in the experiment with human glucagon receptor [1], the “hGCGR + 20% plasma EC50” value was 0.3 nM and the “hGCGR EC50” value stood at 0.03 nM.

B3: OXM345 (peptide)
peptide: HSQGTFTSDYSKYLDSRRAQDFVQWLMNTKEEC
modifications: D-Ser at position 2; gamma-glutamic acid at positions 31 and 32; C4 = Cys(cholesterol) at position 33; C-terminal COOH
For the molecule B3, in the experiment with human GLP-1 receptor, the “hGLP-1R + 20% Plasma EC50” value is above 1000 nM and the “hGLP-1R EC50” value stood at 5.1 nM. In the experiment with human glucagon receptor [1], the “hGCGR + 20% plasma EC50” value was above 1000 nM and the “hGCGR EC50” value was found to be 0.1 nM.

B4: OXM400 (peptide)
peptide: HXQGTFTSDYSKYLDSRRAQDFVQWLMNTKEEC
modifications: Aib at position 2; gamma-glutamic acid at positions 31 and 32; C10 = Cys(oxa12-cholesterol) at position 33; C-terminal COOH
Turning to B4, in the experiment with human GLP-1 receptor, the “hGLP-1R + 20% Plasma EC50” value came to 1.9 nM and the “hGLP-1R EC50” value is 0.07 nM. For the same molecule, in the experiment with human glucagon receptor [1], the “hGCGR + 20% plasma EC50” value turned out to be 0.8 nM and the “hGCGR EC50” value is 0.01 nM.

B5: OXM381 (peptide)
peptide: HSQGTFTSDYSKYLDSRRAQDFVQWLMNTKEEC
modifications: D-Ser at position 2; gamma-glutamic acid at positions 31 and 32; C9 = Cys(mal-oxa12-cholesterol) at position 33; C-terminal COOH
As for B5, in the experiment with human GLP-1 receptor, the “hGLP-1R + 20% Plasma EC50” value stood at 1.9 nM. Besides, the “hGCGR + 20% plasma EC50” value with human glucagon receptor [1] is 0.8 nM and 0.9 nM.

B6: OXM380 (peptide)
peptide: HSQGTFTSDYSKYLDSRRAQDFVQWLMNTKEEC
modifications: D-Ser at position 2; gamma-glutamic acid at positions 31 and 32; C7 = Cys(Oxa4-cholesterol) at position 33; C-terminal COOH
Regarding B6, in the experiment with human GLP-1 receptor, the “hGLP-1R + 20% Plasma EC50” value turned out to be 30.7 nM and the “hGLP-1R EC50” value came out at 0.3 nM. Moreover, in the experiment with human glucagon receptor [1], the “hGCGR + 20% plasma EC50” value worked out at 3.4 nM and the “hGCGR EC50” value stood at 0.1 nM.

B7: OXM401 (peptide)
peptide: HXQGTFTSDYSKYLDSRRAQDFVQWLMNTKEEC
modifications: Acb (1-amino-1-cyclobutane carboxylic acid) at position 2; gamma-glutamic acid at positions 31 and 32; C10 = Cys(oxa12-cholesterol) at position 33; C-terminal COOH
Consider B7, for which, in the experiment with human GLP-1 receptor, the “hGLP-1R + 20% Plasma EC50” value came out at 2.9 nM and the “hGLP-1R EC50” value worked out at 0.23 nM. Moreover, in the experiment with human glucagon receptor [1], the “hGCGR + 20% plasma EC50” value stood at 0.3 nM and the “hGCGR EC50” value turned out to be 0.09 nM.

B8: OXM399 (peptide)
peptide: HSQGTFTSDYSKYLDSRRAQDFVQWLMNTKEEC
modifications: D-Ser at position 2; gamma-glutamic acid at positions 31 and 32; C10 = Cys(oxa12-cholesterol) at position 33; C-terminal COOH
B8: in the experiment with human GLP-1 receptor, the “hGLP-1R + 20% Plasma EC50” value came to 5.7 nM and the “hGLP-1R EC50” value worked out at 0.05 nM. Also, in the experiment with human glucagon receptor [1], the “hGCGR + 20% plasma EC50” value is 0.4 nM and the “hGCGR EC50” value was found to be 0.01 nM.

B9: OXM417 (peptide)
peptide: H[Ac4c]QGTFTSDK([γGlu-γGlu-Palmitoyl])SKYLDERRAQDFVQWLMNTK-NH2
modifications: N-terminus assumed
SMILES: CCCCCCCCCCCCCCCC(=O)N[C@@H](CCC(=O)N[C@@H](CCC(=O)NCCCC[C@H](NC(=O)[C@H](CC(=O)O)NC(=O)[C@H](CO)NC(=O)[C@@H](NC(=O)[C@H](Cc1ccccc1)NC(=O)[C@@H](NC(=O)CNC(=O)[C@H](CCC(N)=O)NC(=O)C1(NC(=O)[C@@H](N)Cc2c[nH]cn2)CCC1)[C@@H](C)O)[C@@H](C)O)C(=O)N[C@@H](CO)C(=O)N[C@@H](CCCCN)C(=O)N[C@@H](Cc1ccc(O)cc1)C(=O)N[C@@H](CC(C)C)C(=O)N[C@@H](CC(=O)O)C(=O)N[C@@H](CCC(=O)O)C(=O)N[C@@H](CCCNC(=N)N)C(=O)N[C@@H](CCCNC(=N)N)C(=O)N[C@@H](C)C(=O)N[C@@H](CCC(N)=O)C(=O)N[C@@H](CC(=O)O)C(=O)N[C@@H](Cc1ccccc1)C(=O)N[C@H](C(=O)N[C@@H](CCC(N)=O)C(=O)N[C@@H](Cc1c[nH]c2ccccc12)C(=O)N[C@@H](CC(C)C)C(=O)N[C@@H](CCSC)C(=O)N[C@@H](CC(N)=O)C(=O)N[C@H](C(=O)N[C@@H](CCCCN)C(N)=O)[C@@H](C)O)C(C)C)C(=O)O)C(=O)O
Turning to B9, the “hGLP-1R + 20% Plasma EC50” value with human GLP-1 receptor stood at 0.15 nM. In addition, in the experiment with human glucagon receptor [1], the “hGCGR + 20% plasma EC50” value was determined as 0.4 nM.

B10: OXM36 (peptide)
peptide: HSQGTFTSDYSKYLDSRRAQDFVQWLMNTKRNRNNIAC
modifications: not fully specified; D-Ser at position 2; C4 = Cys(cholest-5-en-3-yl{[(2R)-3-amino-2-(amino)-3-oxopropyl]thio}acetate) at position 38; C-terminal amide
B10: in the experiment with human glucagon receptor [2], the “GCGR EC50” value is 12.1 nM.

B11: OXM110 (peptide)
peptide: HSQGTFTSDYSKYLDSRRAQDFVQWLMNTKRNRNNIAK
modifications: D-Ser at position 2; K(palmitoyl) at position 38; C-terminal amide
For B11, in the experiment with human glucagon receptor [2], the “GCGR + 10% plasma” value was determined as 6.9 nM and the “GCGR EC50” value was found to be 0.31 nM.

B12: OXM395 (peptide)
peptide: H[Aib]QGTFTSDYSKYLDERRAKDFVQWLMNTK[γGlu][γGlu]C(Oxa12‑cholesterol)-OH
modifications: lactam 16-20
On to B12, for which, in the experiment with human GLP-1 receptor, the “hGLP-1R + 20% Plasma EC50” value is 3.3 nM and the “hGLP-1R EC50” value amounted to 0.7 nM. For the same molecule, in the experiment with human glucagon receptor [1], the “hGCGR + 20% plasma EC50” value was 119 nM and the “hGCGR EC50” value came to 10 nM.

B13: OXM411 (peptide)
peptide: H[dS]QGTFTSDK([γGlu-γGlu-Palmitoyl])SKYLDERRAQDFVQWLMNTK-NH2
modifications: N-terminus assumed
SMILES: CCCCCCCCCCCCCCCC(=O)N[C@@H](CCC(=O)N[C@@H](CCC(=O)NCCCC[C@H](NC(=O)[C@H](CC(=O)O)NC(=O)[C@H](CO)NC(=O)[C@@H](NC(=O)[C@H](Cc1ccccc1)NC(=O)[C@@H](NC(=O)CNC(=O)[C@H](CCC(N)=O)NC(=O)[C@@H](CO)NC(=O)[C@@H](N)Cc1c[nH]cn1)[C@@H](C)O)[C@@H](C)O)C(=O)N[C@@H](CO)C(=O)N[C@@H](CCCCN)C(=O)N[C@@H](Cc1ccc(O)cc1)C(=O)N[C@@H](CC(C)C)C(=O)N[C@@H](CC(=O)O)C(=O)N[C@@H](CCC(=O)O)C(=O)N[C@@H](CCCNC(=N)N)C(=O)N[C@@H](CCCNC(=N)N)C(=O)N[C@@H](C)C(=O)N[C@@H](CCC(N)=O)C(=O)N[C@@H](CC(=O)O)C(=O)N[C@@H](Cc1ccccc1)C(=O)N[C@H](C(=O)N[C@@H](CCC(N)=O)C(=O)N[C@@H](Cc1c[nH]c2ccccc12)C(=O)N[C@@H](CC(C)C)C(=O)N[C@@H](CCSC)C(=O)N[C@@H](CC(N)=O)C(=O)N[C@H](C(=O)N[C@@H](CCCCN)C(N)=O)[C@@H](C)O)C(C)C)C(=O)O)C(=O)O
For the molecule B13, in the experiment with human GLP-1 receptor, the “hGLP-1R + 20% Plasma EC50” value amounted to 0.1 nM. For the same molecule, the “hGCGR + 20% plasma EC50” value with human glucagon receptor [1] is 0.2 nM.

B14: OXM416 (peptide)
peptide: H[Aib]QGTFTSDK([γGlu-γGlu-Palmitoyl])SKYLDERRAQDFVQWLMNTK-NH2
modifications: N-terminus assumed
SMILES: CCCCCCCCCCCCCCCC(=O)N[C@@H](CCC(=O)N[C@@H](CCC(=O)NCCCC[C@H](NC(=O)[C@H](CC(=O)O)NC(=O)[C@H](CO)NC(=O)[C@@H](NC(=O)[C@H](Cc1ccccc1)NC(=O)[C@@H](NC(=O)CNC(=O)[C@H](CCC(N)=O)NC(=O)C(C)(C)NC(=O)[C@@H](N)Cc1c[nH]cn1)[C@@H](C)O)[C@@H](C)O)C(=O)N[C@@H](CO)C(=O)N[C@@H](CCCCN)C(=O)N[C@@H](Cc1ccc(O)cc1)C(=O)N[C@@H](CC(C)C)C(=O)N[C@@H](CC(=O)O)C(=O)N[C@@H](CCC(=O)O)C(=O)N[C@@H](CCCNC(=N)N)C(=O)N[C@@H](CCCNC(=N)N)C(=O)N[C@@H](C)C(=O)N[C@@H](CCC(N)=O)C(=O)N[C@@H](CC(=O)O)C(=O)N[C@@H](Cc1ccccc1)C(=O)N[C@H](C(=O)N[C@@H](CCC(N)=O)C(=O)N[C@@H](Cc1c[nH]c2ccccc12)C(=O)N[C@@H](CC(C)C)C(=O)N[C@@H](CCSC)C(=O)N[C@@H](CC(N)=O)C(=O)N[C@H](C(=O)N[C@@H](CCCCN)C(N)=O)[C@@H](C)O)C(C)C)C(=O)O)C(=O)O
Regarding B14, in the experiment with human GLP-1 receptor, the “hGLP-1R + 20% Plasma EC50” value worked out at 0.09 nM. Besides, in the experiment with human glucagon receptor [1], the “hGCGR + 20% plasma EC50” value turned out to be 1.4 nM.

The record behind these values is US20120165503A1 (Merck Sharp & Dohme, published 2012).
